The values below come from US20110124006A1, “METHOD FOR SCREENING OF THERAPEUTIC AGENT FOR CANCER” (Hismitsu Pharmaceutical Co., Inc., priority 2008, published 2011).

The test system of test [1] is SK-N-BE cells, NLF cells, SH-SY5Y cells, SMS-SAN cells. Briefly: MTT assay, EGF-induced proliferation of neuroblastoma-derived cells. Format: cell-based. The conditions noted are these: SK-N-BE, NLF, SH-SY5Y, SMS-SAN cells, 10 ng/ml EGF. The procedure:
SK-N-BE cells, NLF cells, SH-SY5Y cells, SMS-SAN cells, which are cell lines derived from neuroblastoma, and SK-N-BE cells into which siRNA against NLRR1 was introduced were cultured in the presence and absence of 10 ng/ml EGF, and the cell proliferation was quantified by the MTT assay over time. FIG. 28 is a graph showing the cell proliferation, showing the change fold ratio of the proliferation of cells in the presence of EGF to the proliferation of cells in the absence of EGF.

For the next test, the system named is MYCN expression. Put plainly: Immunoblot of MYCN expression in SK-N-BE cells treated with EGF. Format: cell-based. The procedure:
A neuroblastoma cell line SK-N-BE was cultured for 10 hours in media containing EGF at a variety of concentrations, by using an anti-phosphorylated EGFR antibody, an anti-EGFR antibody, an anti-MYCN antibody and an anti-actin antibody, the phosphorylation of an EGF receptor and the expression of MYCN were analyzed by an immunoblot method. FIG. 19 is a photograph showing a result of immunoblot. […] FIG. 20 is a photograph in which SK-N-BE cells were cultured in a medium containing 10 ng/ml EGF for different periods of time and the expression of MYCN was analyzed by an immunoblot method using an anti-MYCN antibody and an anti-actin antibody. […] From the above-mentioned results, it is thought that the following positive feed-back mechanism is present. That is to say, by EGF treatment, an EGFR signal is activated and the expression of MYCN is promoted. Next, by MYCN, transcription of NLRR1 is promoted. Next, the expression of NLRR1 is increased and activated. Next, by NLRR1, an EGFR signal is activated. Next, the expression of MYCN is further promoted.

B1: epidermal growth factor (protein, UniProt P01133 23-1207, looked up)
Pro-epidermal growth factor: PQHWSCPEGTLAGNGNSTCVGPAPFLIFSHGNSIFRIDTEGTNYEQLVVDAGVSVIMDFHYNEKRIYWVDLERQLLQRVFLNGSRQERVCNIEKNVSGMAINWINEEVIWSNQQEGIITVTDMKGNNSHILLSALKYPANVAVDPVERFIFWSSEVAGSLYRADLDGVGVKALLETSEKITAVSLDVLDKRLFWIQYNREGSNSLICSCDYDGGSVHISKHPTQHNLFAMSLFGDRIFYSTWKMKTIWIANKHTGKDMVRINLHSSFVPLGELKVVHPLAQPKAEDDTWEPEQKLCKLRKGNCSSTVCGQDLQSHLCMCAEGYALSRDRKYCEDVNECAFWNHGCTLGCKNTPGSYYCTCPVGFVLLPDGKRCHQLVSCPRNVSECSHDCVLTSEGPLCFCPEGSVLERDGKTCSGCSSPDNGGCSQLCVPLSPVSWECDCFPGYDLQLDEKSCAASGPQPFLLFANSQDIRHMHFDGTDYGTLLSQQMGMVYALDHDPVENKIYFAHTALKWIERANMDGSQRERLIEEGVDVPEGLAVDWIGRRFYWTDRGKSLIGRSDLNGKRSKIITKENISQPRGIAVHPMAKRLFWTDTGINPRIESSSLQGLGRLVIASSDLIWPSGITIDFLTDKLYWCDAKQSVIEMANLDGSKRRRLTQNDVGHPFAVAVFEDYVWFSDWAMPSVMRVNKRTGKDRVRLQGSMLKPSSLVVVHPLAKPGADPCLYQNGGCEHICKKRLGTAWCSCREGFMKASDGKTCLALDGHQLLAGGEVDLKNQVTPLDILSKTRVSEDNITESQHMLVAEIMVSDQDDCAPVGCSMYARCISEGEDATCQCLKGFAGDGKLCSDIDECEMGVPVCPPASSKCINTEGGYVCRCSEGYQGDGIHCLDIDECQLGEHSCGENASCTNTEGGYTCMCAGRLSEPGLICPDSTPPPHLREDDHHYSVRNSDSECPLSHDGYCLHDGVCMYIEALDKYACNCVVGYIGERCQYRDLKWWELRHAGHGQQQKVIVVAVCVVVLVMLLLLSLWGAHYYRTQKLLSKNPKNPYEESSRDVRSRRPADTEDGMSSCPQPWFVVIKEHQDLKNGGQPVAGEDGQAADGSMQPTSWRQEPQLCGMGTEQGCWIPVSSDKGSCPQVMERSFHMPSYGTQTLEGGVEKPHSLLSANPLWQQRALDPPHQMELTQ
modifications: Pro-epidermal growth factor
notes: epidermal growth factor, purchased from Sigma
On to B1, for which the “proliferation of cells (MTT assay, fold ratio with vs without EGF)” value in test [1] is listed as “the proliferation of cells derived from neuroblastoma is promoted”. The “expression of MYCN (immunoblot), time course” value with MYCN expression (10 ng/ml EGF, different periods of time) is listed as “Increased expression of MYCN by EGF over time”. For the same molecule, the “expression of MYCN (immunoblot), EGF concentration dependence” value in the test on MYCN expression (10 hours, EGF at a variety of concentrations) is reported as “the expression of MYCN is increased depending upon the concentration of EGF”.
